A short description of series [1]: Maximum tolerated dose (MTD) study in mdx mice: survival and in-life observations. To be noted: for MTD % Survival / MTD in-life observations: n=3. It is filed as in vivo, Mouse (mdx). The method, then:
The maximum tolerated dose (MTD) of selected peptide-oligomer-conjugates of the disclosure was determined in mice according to the regimens shown in Table 8. […] PPMO-5 has a MTD>200 mg/kg.
Importantly, the toxicity of a peptide-oligomer-conjugate can be described in two phases: t1 and t2. t1 refers to rapid death, or death within 48 hours, most likely due to cardiopulmonary collapse. t2 refers to chronic kidney toxicity, observed with a peptide-oligomer-conjugate after multiple weekly doses. The MTD measurements described herein refer to ti toxicity (48 hour endpoint).

Series [2] in a line: Animal health / clinical observations in dose response study. The format is in vivo. The protocol:
(§1) The day of dosing on the study was designated as Study Day 1. Each peptide-oligomer-conjugate was vortexted for approximately 10 seconds prior to dosing, and administered via tail vein as a slow push bolus (˜5 seconds; 200 μL). Dosing was performed over two days. All animals receiving the same peptide-oligomer-conjugate were dosed on the same day. […] Any remaining spare animals were necropsied and tissues collected as specified below.
(§2) Any animal showing signs of distress, particularly if death appeared imminent was humanely euthanized according to Numira Biosciences Standard Operating Procedures. Body weights were recorded on the day after arrival, the day of dosing, and the day of necropsy. Detailed clinical observations were conducted and recorded at 0 minutes, 15 minutes, and 2 hours post-dose to assess tolerability of injections.
Animals unlikely to survive until the next scheduled observation were weighed and euthanized. Animals found dead were weighed and the time of death was estimated as closely as possible. Blood and tissue samples were not collected.
The partial gross necropsy included examination and documentation of findings. All external surfaces and orifices were evaluated. All abnormalities observed during the collection of the tissues listed below were described completely and recorded. No additional tissues were taken.

The nature of series [3]: Individual body weights in dose response study. The format is in vivo, Mouse (mdx). The settings on record: mdx mice. The method, then: as §2
The next series has as its system dystrophin exon 23. Briefly: Dose response for efficacy in mdx mice: % exon 23 skipping by nested RT-PCR. It is filed as in vivo, Mouse (mdx). The settings on record: for % Exon 23 Skip (Average), Diaphragm / % Exon 23 Skip (Average), Heart / % Exon 23 Skip (Average), Quadricep (L): mdx mice, 7 days post-dose, n=5.
Source text: The aim of this study was to compare efficacy of peptide-oligomer-conjugates of the disclosure in a dose response study in mice. The spacing between the peptide and PMO modulates efficacy. Accordingly, PEG lengths of 3, 4, and 8 were used to systematically increase spacing between Ac-R6-Gly (SEQ ID NO:1) and the PMO. Additionally, an all-D amino acid version of Ac-R6-Gly (SEQ ID NO:1) and Ac-R6-Apa (SEQ ID NO:4) (4-amino phenyl acetic acid; aromatic, hydrophobic linker) were used (Table 2).
Selected peptide-oligomer-conjugates that were tested are listed in Table 2 (the peptide-oligomer-conjugates were formulated in saline and stored at 5° C.).
Animals were randomized into treatment groups based on cage weights as specified in Table 4.
as §1
On day 8 (7 days post-dose), all animals, including any untreated or spare animals, were humanely euthanized with carbon dioxide. Euthanasia was performed in accordance with accepted American Veterinary Medical Association (AVMA) guidelines on Euthanasia, June 2007.
Tissues were collected within 15 minutes or less of euthanasia. All instruments and tools used were changed between treatment groups. All tissues were flash frozen and stored at a temperature lower than −70° C. as soon as possible after collection. The following tissues were collected: liver, kidneys, heart, quads, and diaphragm.
RNA from mouse quadriceps, heart, and diaphragm tissue was purified using GE Illustra RNAspin 96 well extraction kits. Briefly, 400 μL of lysis buffer (RA1+1% 2-mercaptoethanol was added to about 20-30 mg of frozen tissue in a plate with zirconia beads (Biospec) and homogenized using GenoGrinder (Spex Sample Prep) at 4×8 minutes at 1750 RPM; cooling between each run. The homogenate was immediately processed for RNA purification according to the GE RNAspin Illustra 96 well protocol. Total RNA was quantitated with a Nanodrop 2000 spectrophotometer (ThermoScientific).
RNA was analyzed by a classic nested PCR reaction. RT-PCR reagents were from Invitrogen unless otherwise specified. PCR reactions were run in a CFX96 or S1000 thermocycler (BioRad). Final cDNA products were separated on a NuPage 10% TBE gel (Invitrogen) run at 200V, 1 hr at room temperature. Gels were scanned with a Typhoon Trio (GE Healthcare) using a 670 BP 30 Cy5 emission filter and analyzed with ImageQuant software.
Primers used for PCR analysis were as follows: dystrophin outer forward (5′-[…]-3′; SEQ ID NO:9), dystrophin outer reverse (5′-[…]-3′; SEQ ID NO:10), dystrophin inner forward (5′-[…]-3′; SEQ ID NO:11), and dystrophin inner reverse (5′-[…]-3′; SEQ ID NO:12).

Details of series [4]: species or system Mouse (mdx). The settings on record: mouse, in vivo. From the text: BUN levels are increased when compared to PPMO-8.
The mark [5] stands for this setting: 100 mg/kg single i.v. injection.
[6] abbreviates: 150 mg/kg single i.v. injection.
Setting [7] is: 200 mg/kg single i.v. injection.
[8] abbreviates: 5 mg/kg single i.v., day 8, one value per animal, 5 mg/kg.
[9] abbreviates: 10 mg/kg single i.v., day 8, one value per animal, 10 mg/kg.
The mark [10] stands for this setting: 20 mg/kg single i.v., day 8, one value per animal, 20 mg/kg.
The mark [11] stands for this setting: 40 mg/kg single i.v., day 8, one value per animal (FD = found dead), 40 mg/kg.
[12] abbreviates: 80 mg/kg single i.v., day 8, one value per animal, 80 mg/kg.

Where “and” joins values, the source holds several entries; their conditions need not be identical. Equal entries are not always repeated.

With `CC(=O)N[C@@H](CCCNC(=N)N)C(=O)N[C@@H](CCCNC(=N)N)C(=O)N[C@@H](CCCNC(=N)N)C(=O)N[C@@H](CCCNC(=N)N)C(=O)N[C@@H](CCCNC(=N)N)C(=O)N[C@@H](CCCNC(=N)N)C(=O)NCC(=O)N1CCN(C(=O)OCCOCCOCCOC(=O)N2C[C@@H](COP(=O)(N(C)C)N3C[C@@H](COP(=O)(N(C)C)N4C[C@@H](COP(=O)(N(C)C)N5C[C@@H](COP(=O)(N(C)C)N6C[C@@H](COP(=O)(N(C)C)N7C[C@@H](COP(=O)(N(C)C)N8C[C@@H](COP(=O)(N(C)C)N9C[C@@H](COP(=O)(N(C)C)N%10C[C@@H](COP(=O)(N(C)C)N%11C[C@@H](COP(=O)(N(C)C)N%12C[C@@H](COP(=O)(N(C)C)N%13C[C@@H](COP(=O)(N(C)C)N%14C[C@@H](COP(=O)(N(C)C)N%15C[C@@H](COP(=O)(N(C)C)N%16C[C@@H](COP(=O)(N(C)C)N%17C[C@@H](COP(=O)(N(C)C)N%18C[C@@H](COP(=O)(N(C)C)N%19C[C@@H](COP(=O)(N(C)C)N%20C[C@@H](COP(=O)(N(C)C)N%21CCN(C(=O)OCCOCCOCCO)CC%21)O[C@@H](n%21cnc%22c(=O)[nH]c(N)nc%22%21)C%20)O[C@@H](n%20ccc(N)nc%20=O)C%19)O[C@@H](n%19cc(C)c(=O)[nH]c%19=O)C%18)O[C@@H](n%18cnc%19c(N)ncnc%19%18)C%17)O[C@@H](n%17cc(C)c(=O)[nH]c%17=O)C%16)O[C@@H](n%16cc(C)c(=O)[nH]c%16=O)C%15)O[C@@H](n%15cnc%16c(N)ncnc%16%15)C%14)O[C@@H](n%14ccc(N)nc%14=O)C%13)O[C@@H](n%13ccc(N)nc%13=O)C%12)O[C@@H](n%12cc(C)c(=O)[nH]c%12=O)C%11)O[C@@H](n%11cc(C)c(=O)[nH]c%11=O)C%10)O[C@@H](n%10cnc%11c(N)ncnc%11%10)C9)O[C@@H](n9cnc%10c(N)ncnc%109)C8)O[C@@H](n8ccc(N)nc8=O)C7)O[C@@H](n7ccc(N)nc7=O)C6)O[C@@H](n6ccc(N)nc6=O)C5)O[C@@H](n5cnc6c(N)ncnc65)C4)O[C@@H](n4cnc5c(=O)[nH]c(N)nc54)C3)O[C@@H](n3cc(C)c(=O)[nH]c3=O)C2)CC1` (stereo partly drawn) [PPMO-4], the “MTD % Survival” value in series [1] (50 mg/kg single i.v. injection) amounted to 100%; in series [1] (setting [5]), 100%; in series [1] (setting [6]) it was 100%; in series [1] (setting [7]), 0%. In addition, the MTD in-life observations is 3/3 slow to recover at 15 min., ok by 2 hours in series [1] (100 mg/kg single i.v.); 3/3 lethargic at 15 min., ok by 2 hours in series [1] (150 mg/kg single i.v.); 3/3 lethargic at 15 min and 2 hours, 3/3 dead at 24 hours in series [1] (200 mg/kg single i.v.). Further, the Animal health observation entry is “right eye closed and had a white substance exuding from it” in series [2] (5 mg/kg, at necropsy, animal 2406); “slow to recover at the 15 minute observation but recovered by the 2 hour observation” in series [2] (40 mg/kg single i.v.); “slow to recover at the 15 minute observation but recovered by the 2 hour observation” in series [2] (80 mg/kg single i.v.). In addition, the “Individual body weight, pre-necropsy” value was 21.45 g and 22.61 g and 19.15 g and 19.6 g and 21.53 g in series [3] (setting [8]); 19.41 g and 21.91 g and 18.98 g and 20.43 g and 20.49 g in series [3] (setting [9]); 20.09 g and 21.25 g and 22.62 g and 20.71 g and 17.08 g in series [3] (setting [10]); 20.59 g and 18.25 g and 22.63 g and 21.35 g and 21.22 g in series [3] (setting [11]); 23.86 g and 17.9 g and 21.36 g and 21.1 g and 20.69 g in series [3] (setting [12]).

Turning to “Ac-dR6-G (all-D amino acid R) (SEQ ID NO: 8) (RRRRRRG; N-acetyl; all-D amino acids; SITE 1 acetylation of N terminus; SITE 1..6 D-Arginine) [PPMO-7]”, the “MTD % Survival” value in series [1] (50 mg/kg single i.v. injection) is 100%; in series [1] (setting [5]), 100%; in series [1] (setting [6]) it was 100%; in series [1] (setting [7]), 33%. Besides, the MTD in-life observations in series [1] (100 mg/kg single i.v.) is 3/3 slow to recover at 15 min., ok by 2 hours; in series [1] (150 mg/kg single i.v.), 3/3 slow to recover at 15 min., ok by 2 hours; in series [1] (200 mg/kg single i.v.), 2/3 dead at 15 minutes, 1/3 lethargic at 15 min and 2 hours. Moreover, the Tolerability entry in series [1] (MTD study, in words) was “not well-tolerated”. The “Individual body weight, pre-necropsy” value is 22.3 g and 22.46 g and 23.21 g and 21.43 g and 23.41 g in series [3] (setting [8]); 17.85 g and 22.7 g and 23.56 g and 21.97 g and 21.8 g in series [3] (setting [9]); 20.85 g and 20.17 g and 21.1 g and 21.38 g and 24.55 g in series [3] (setting [10]); 22.58 g and 22.21 g and 21.29 g and 18.19 g and 20.93 g in series [3] (setting [11]); 21.98 g and 22.63 g and 19.65 g and 19.9 g and 22.86 g in series [3] (setting [12]). Besides, in the series with dystrophin exon 23 (comparison with other conjugates / linkers), the “Efficacy (% exon 23 skipping), in words” value is given as “improved efficacy”. For the same compound, the “% Exon 23 Skip (Average), Diaphragm” value was 1% in the series on dystrophin exon 23 (5 mg/kg single i.v. injection); 6% in the series on dystrophin exon 23 (10 mg/kg single i.v. injection); 30% in the series on dystrophin exon 23 (20 mg/kg single i.v. injection); 67% with dystrophin exon 23 (40 mg/kg single i.v. injection); 93% in the series on dystrophin exon 23 (80 mg/kg single i.v. injection). Further, the “% Exon 23 Skip (Average), Heart” value worked out at 0% with dystrophin exon 23 (5 mg/kg single i.v. injection); 2% with dystrophin exon 23 (10 mg/kg single i.v. injection); 13% in the series on dystrophin exon 23 (20 mg/kg single i.v. injection); 42% with dystrophin exon 23 (40 mg/kg single i.v. injection); 93% in the series on dystrophin exon 23 (80 mg/kg single i.v. injection). For the same compound, the “% Exon 23 Skip (Average), Quadricep (L)” value in the series on dystrophin exon 23 (5 mg/kg single i.v. injection) was determined as 4%; with dystrophin exon 23 (10 mg/kg single i.v. injection), 11%; in the series with dystrophin exon 23 (20 mg/kg single i.v. injection) it was 53%; in the series on dystrophin exon 23 (40 mg/kg single i.v. injection), 89%; with dystrophin exon 23 (80 mg/kg single i.v. injection), 92%. The “Liver and kidney serum chemistry markers” value in series [4] was “increased liver and kidney serum chemistry markers”.

Source of the values: US20250057965A1, “PEPTIDE OLIGONUCLEOTIDE CONJUGATES” (Sarepta Therapeutics, Inc., priority 2015, published 2025).
